Values quoted from earlier work in publication PMC3526805.

Target: C3b C3b (Homo sapiens) (UniProt P01024)
UniProt P01024, sequence (P01024 566-670): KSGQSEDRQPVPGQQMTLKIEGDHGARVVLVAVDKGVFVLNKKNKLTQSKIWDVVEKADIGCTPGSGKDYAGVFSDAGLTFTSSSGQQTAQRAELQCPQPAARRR

**Q.** With “Factor H four regulatory domains (from UniProt P08603)” as the substance, how does the Kd read?
**A.** 10 µM
